B1: Hammerhead Ribozyme (parent)
chain: ACCGGAUGUGCUUUCCGGUCUGAUGAGUCCGUGAGGACGAAACAG

Variants of: B1
Test: self-cleavage, relative activity (ratio to wild type); higher = more cleavage; co-transcriptional

Variant	self-cleavage
ACCGGAUGUGCUUUCCGGUCUGAUGACUCCGUGAGGACGAAACAC [G27C G45C]	0.493
ACCGGAUGUGUUUUCCAGUCUGAUGAGUCCGUGAGGACGAAACAG [C11U G17A]	0.475
ACCGGAUGUGCUAUCCGGUCUGAUGCGUCCGUGAGGACGAAACAG [U13A A26C]	0.564
ACCGGAUGUGCCUUCCCGUCUGAUGAGUCCGUGAGGACGAAACAG [U12C G17C]	0.446
ACCGGAUGUGCUUUUCGGUCUUAUGAGUCCGUGAGGACGAAACAG [C15U G22U]	0.386
ACCGGAUGUGCUUUCCUGUCGGAUGAGUCCGUGAGGACGAAACAG [G17U U21G]	0.387
AGCGGAUGUGCUUUCCGAUCUGAUGAGUCCGUGAGGACGAAACAG [C2G G18A]	0.459
ACCGGAUGUGCUUCCCGGUCUGCUGAGUCCGUGAGGACGAAACAG [U14C A23C]	0.373
CCCGGAUGUGCUUUCCGGUAUGAUGAGUCCGUGAGGACGAAACAG [A1C C20A]	0.349
ACCGGCUGUGCUUUCCGGUCUGAUGAGUCCGUGAGGACGAAACGG [A6C A44G]	1.06
ACCGGAUGUGCUUUCCGGUCUGAUGAGUCCGUGAGGGCGAAACGG [A37G A44G]	0.74
ACCGGAUGUGCUUUCCGCUCUGAUGAGUCUGUGAGGACGAAACAG [G18C C30U]	0.606
ACCGGAUGUGCUUUCCGGUCUGAUGACUCCGUGCGGACGAAACAG [G27C A34C]	0.411
ACCGGAUGUGCUUUCCGGUCUGAUGAGUCCGUGAGUACGAAAAAG [G36U C43A]	0.36
ACCGGAUCUGCUUUCCGGUCUGAUGAGUCUGUGAGGACGAAACAG [G8C C30U]	0.981
AACGGAUGUGCUUUCCGGUCUGAUGAGUCCGUGAGGACGAAACAA [C2A G45A]	0.393
ACCGGAUGUGCUUUCCGGACUGAUGAGUCCGAGAGGACGAAACAG [U19A U32A]	0.321
ACCGGAUGUGCAUUCCGGUCUGAUGAGUCCGUCAGGACGAAACAG [U12A G33C]	1.37
ACCGGAUGCGCUUUCCGGUCUGAUGAGUCCAUGAGGACGAAACAG [U9C G31A]	1.39
ACCGGAUGUGCUUUCCGGUCUGAUGAGUCCGUGAGGACAAAGCAG [G39A A42G]	0.319
ACCGGUUGUGCUUUCCGGUCUGGUGAGUCCGUGAGGACGAAACAG [A6U A23G]	0.249
ACCGGAUUUGCUUUCCGGUCUGAUAAGUCCGUGAGGACGAAACAG [G8U G25A]	0.317
ACCGCAUGUGCUUUCCGGUCUGAUGAGUCCGUGAGCACGAAACAG [G5C G36C]	0.357

Variant	self-cleavage
ACCGGAUGUGCUUUCCGGUCUGAUGAGUACGUGAAGACGAAACAG [C29A G35A]	0.618
ACCGGCUGUGGUUUCCGGUCUGAUGAGUCCGUGAGGACGAAACAG [A6C C11G]	0.958
ACCGGACGUGCUUUCCGGACUGAUGAGUCCGUGAGGACGAAACAG [U7C U19A]	0.397
ACCGGAUGUGCUUUCCGGUCUGAUGAUUCCGUGAGGACGAUACAG [G27U A41U]	0.347
ACCGGAUGUGCUUUCCGGUCUGAUGAGUCCAUGAGGACGAAUCAG [G31A A42U]	0.335
ACCGGAUGUGCUUUCCGGUCUGAUGAGUCCGUGAGGAUGAAAAAG [C38U C43A]	0.414
ACCGGAUGUGCUUUCCGGUCUGAUGAAUCCGUGAGGGCGAAACAG [G27A A37G]	0.691
GCCGGAUGUGCUUUCCGGUCUGAUGAGACCGUGAGGACGAAACAG [A1G U28A]	1.26
GCCGGAUGUGCUUUCCGGUCUGAUGAGUCCGUGAGGACGGAACAG [A1G A40G]	0.388
ACCGGAUGUGCUUUCCGGUCUGAUGAGUCCGAGAGGACGAAGCAG [U32A A42G]	0.238
ACCGUAUGUGCUUUCCGGCCUGAUGAGUCCGUGAGGACGAAACAG [G5U U19C]	0.396
ACCGGAUGUGCUUUCCGGUCUGACGAGUCCGUGAGGAUGAAACAG [U24C C38U]	0.901
ACCGCAUGUGAUUUCCGGUCUGAUGAGUCCGUGAGGACGAAACAG [G5C C11A]	0.761
ACCGGAUAUACUUUCCGGUCUGAUGAGUCCGUGAGGACGAAACAG [G8A G10A]	1.16
ACCGUAUGUGCUUUCCGGUCUGAUGAGUCCGUGCGGACGAAACAG [G5U A34C]	0.833
ACCGGAUGUGCUUUCCCGUGUGAUGAGUCCGUGAGGACGAAACAG [G17C C20G]	0.279
ACCGGAUGUGCGUUCCGGUCUGAAGAGUCCGUGAGGACGAAACAG [U12G U24A]	1.13
ACCGGAUGUGCUUUCCGGUCAGAUGAGUCCGUGAGGACGAAAAAG [U21A C43A]	0.349
ACCGGAUGUGCUUUCCGGUCUGAUGAGUCCGUGUGGACGAAACAU [A34U G45U]	0.625
ACCGGAAGUGCUUUCCGGUCUGAUGAGUCCGUGAGGACGAAAGAG [U7A C43G]	0.237
ACCGUAUGUGCUUUCCGGUCAGAUGAGUCCGUGAGGACGAAACAG [G5U U21A]	0.45
CCCGGAUGUACUUUCCGGUCUGAUGAGUCCGUGAGGACGAAACAG [A1C G10A]	0.38
ACCGGAUGUGCUUUCCGGUCUGAUGAGCCCGUGAGGUCGAAACAG [U28C A37U]	0.772

Variant	self-cleavage
AACGGAUGUGCUUUCCGGUCUGAUGAGUCCGUGAGGACGCAACAG [C2A A40C]	0.353
ACUGGAUGUGCUUUCCGGUCUGAUGAGUCCGUGAGAACGAAACAG [C3U G36A]	0.617
ACCGGAUGUGCUUUCCGGUCUGCUGAGUCCGUGAGGACGAAACCG [A23C A44C]	0.39
ACCGGAUGUGCUUUCCGGUCUGAUGAGUCCGUGAGGACGGAACAU [A40G G45U]	0.421
ACCGGAUGUGCUUGCCGGUCUGAUGAGUCCGUGAGGACGAAAAAG [U14G C43A]	0.304
ACCGGAGGUGCUUUCCGGUCUGAUGAGUCCGUGAAGACGAAACAG [U7G G35A]	0.654
GCAGGAUGUGCUUUCCGGUCUGAUGAGUCCGUGAGGACGAAACAG [A1G C3A]	0.699
ACCGGAUGUGCUUUCCGGUCUGAUGAGUCCGUGAGGACGAUAGAG [A41U C43G]	0.332
ACCGGAUGUCCUUUCCGGUCUGAUGAGUCCGUGAGGACGAAAGAG [G10C C43G]	0.381
ACCGGAUGUGCUUUCCCGUCAGAUGAGUCCGUGAGGACGAAACAG [G17C U21A]	0.306
ACCGGAUGUGCUUUCCGGUCUGAUGAGUCAGUGAGGACUAAACAG [C30A G39U]	0.418
ACCGGAUGUGCUUUCCGGUGGGAUGAGUCCGUGAGGACGAAACAG [C20G U21G]	0.376
AACGGACGUGCUUUCCGGUCUGAUGAGUCCGUGAGGACGAAACAG [C2A U7C]	0.382
ACCGGAUGUGAUUUCCGGUCGGAUGAGUCCGUGAGGACGAAACAG [C11A U21G]	0.713
ACCGGAUGUGCUUUCCGGUCUGAUGAGUCCGUGAGGACGUCACAG [A40U A41C]	0.275
ACCGGAUGUGCUUUCCGGUCUGAUGAGUGCGUGAGGACGAACCAG [C29G A42C]	0.407
ACCGGAUGCGCUUUCCGGUCUGAUGAUUCCGUGAGGACGAAACAG [U9C G27U]	0.505
ACCGGAUGUGCUUUCCGGUCUAAUGAGGCCGUGAGGACGAAACAG [G22A U28G]	0.37
ACCGGAUGUGCUUGCCGGUCUGACGAGUCCGUGAGGACGAAACAG [U14G U24C]	0.611
ACCAGAUGUGCUUUCCGGUCUGAUGAGUCCGUAAGGACGAAACAG [G4A G33A]	0.55
ACCGGAUGUACUUUCCGGUCUGAUGAGUCCGCGAGGACGAAACAG [G10A U32C]	1.52
ACCGGAUCUGCUUUCCGGCCUGAUGAGUCCGUGAGGACGAAACAG [G8C U19C]	0.544
ACCUGAUGUGCUUUCCGGUCUGAUGAGUCCGUGAGGACGUAACAG [G4U A40U]	0.297

Variant	self-cleavage
ACCGGAUGUGCUUUCUAGUCUGAUGAGUCCGUGAGGACGAAACAG [C16U G17A]	0.556
ACCGGAUGUGCUUUCCGGUCUGAUGAGUCCUUGAGGACGAAACGG [G31U A44G]	1.64
ACCGGAAGUGCUUUCCGGUCUGUUGAGUCCGUGAGGACGAAACAG [U7A A23U]	0.322
ACCGGAUGUGCGUUCCGGUCUGAUAAGUCCGUGAGGACGAAACAG [U12G G25A]	0.316
ACCGCAUGUGCUUUCCGGUCUGAUGAGUCCGUGUGGACGAAACAG [G5C A34U]	0.477
ACCGGAUGUGCUUUCCGGUCGGAUGAGUCCGUGAGGGCGAAACAG [U21G A37G]	0.454
ACCGGAUAUGCUAUCCGGUCUGAUGAGUCCGUGAGGACGAAACAG [G8A U13A]	1.04
ACCGGAUGUGCUUUCCGGUCUGAUGAGUCCGUGAGGAGGAAACUG [C38G A44U]	0.407
ACCGGAUCUGCUUUCCGGUCUGAUGAGUCCGUGAGGGCGAAACAG [G8C A37G]	1.2
ACCGGAUGUACUUUCCGGUCUGAUGAGUCCGUGAGGACGAAACUG [G10A A44U]	0.741
ACCGGAUGUGGUUUCCGGACUGAUGAGUCCGUGAGGACGAAACAG [C11G U19A]	0.296
ACCGGUUGUGCUUUCCGGUCUGAUGGGUCCGUGAGGACGAAACAG [A6U A26G]	0.291
ACCGGAUUUGCUUUCCGGUCAGAUGAGUCCGUGAGGACGAAACAG [G8U U21A]	0.782
ACCGGAUUUGCUUUCCGGUCUGAUGAGUCUGUGAGGACGAAACAG [G8U C30U]	0.942
ACCGGAUGUCCUUUCCGGUCUGAUGAGUCCGUGAGGUCGAAACAG [G10C A37U]	0.576
ACCGGCCGUGCUUUCCGGUCUGAUGAGUCCGUGAGGACGAAACAG [A6C U7C]	0.577
ACCGGACGUGCUUACCGGUCUGAUGAGUCCGUGAGGACGAAACAG [U7C U14A]	1.26
ACCGGAUGUGCUUUCCGGGCUGAUAAGUCCGUGAGGACGAAACAG [U19G G25A]	0.275
ACCGGAUGUGCUUUCCGGUCUGAUGAGUCAAUGAGGACGAAACAG [C30A G31A]	1.12
ACCGGAUGUGGUUUCGGGUCUGAUGAGUCCGUGAGGACGAAACAG [C11G C16G]	0.999
ACCGGAUGUGCUUUCCGGUCUGAUGAGUCCUUGAGGAAGAAACAG [G31U C38A]	0.776
ACCGGAUGUGGUUUCCGGUCUGAUGAGUCCGUGAGGACGGAACAG [C11G A40G]	0.413
ACCGGAUGUGCUUUCCGGUCUAAUGGGUCCGUGAGGACGAAACAG [G22A A26G]	0.269

Variant	self-cleavage
AUCGGAUCUGCUUUCCGGUCUGAUGAGUCCGUGAGGACGAAACAG [C2U G8C]	0.871
ACCGGAUGUGCUCUCCGGUCUGAUGAGUCGGUGAGGACGAAACAG [U13C C30G]	0.956
ACCGGAUGUGCUUUCCGGUCAGAUGAGUCGGUGAGGACGAAACAG [U21A C30G]	0.448
ACCGGAUGUGCUUGCCGGUCUGAUGAGUCUGUGAGGACGAAACAG [U14G C30U]	0.552
ACAGGAUGUGCUUUCCGGUCUGAUCAGUCCGUGAGGACGAAACAG [C3A G25C]	0.344
ACCGGAUGUUCUUUCCGGUCUGAUGAGUCCGUGAGGACGAAACAU [G10U G45U]	0.926
ACCGGAUGUCCUUUCCGGUCUGGUGAGUCCGUGAGGACGAAACAG [G10C A23G]	0.309
ACCGGAUGUGCUUUCCGGUCUGAUCAGUCCGUGAGGACGAAAUAG [G25C C43U]	0.425
ACCGGAUGUCCUUUCCGGUCUGAUGAGUCCGUGAGGACGAAACAC [G10C G45C]	0.783
ACCGGAUGUGCUUUCCGGUUUGAUGAGGCCGUGAGGACGAAACAG [C20U U28G]	0.596
ACCCGAUGUGCUUUCCGGUCUGAUGAGACCGUGAGGACGAAACAG [G4C U28A]	0.297
ACCGGAUGUGCUUUCCGAUCUGAUGAGUCCGUGGGGACGAAACAG [G18A A34G]	0.562
ACCGGAUGUGCUUUCCGGUCUGAUGAGUCCGUGAGGAAGAAACAG [C38A]	0.833
ACCGGAUGUGCUUUCCGGUCCGAUGAAUCCGUGAGGACGAAACAG [U21C G27A]	0.597
ACCGGAUGUGCUUUCCGGUCUGAUGAGUCCCUGAGGACGAAACAU [G31C G45U]	0.757
GCCGGAUGCGCUUUCCGGUCUGAUGAGUCCGUGAGGACGAAACAG [A1G U9C]	1.8
ACCGGAUGUGCUUUCCGGUCUGAUUAGUCGGUGAGGACGAAACAG [G25U C30G]	0.291
ACCGGAUGUGCUUUCCGGUCUGAUGAGUCCGUGAUGACGAAACAC [G35U G45C]	0.466
ACCGGAUGUGCUAUCCGGUCUGAUGAGUCCGUGAGGACUAAACAG [U13A G39U]	0.339
ACCGGAUGUGCUUUCCGGUAUGAUGAGUCCGUGAGGACGGAACAG [C20A A40G]	0.326
ACCGGAUGUACUUUCCGGUCUGAUGAUUCCGUGAGGACGAAACAG [G10A G27U]	0.431
ACCGGAUGUGAUUUCCGGUCUGAAGAGUCCGUGAGGACGAAACAG [C11A U24A]	1.14

From the RNAGym collection of RNA variant scans (doi:10.7554/elife.80360)
